The values that follow are results of earlier work, collected in publication PMC2814318.

Data set [1] deals with CaV β2a subunit (Rattus norvegicus) (UniProt Q8VGC3).
Data set [2] has as its target CaV β1b subunit (Rattus norvegicus) (UniProt P54283).

Chain of CaMKIIδ (P15791 2-533, stated change not applied): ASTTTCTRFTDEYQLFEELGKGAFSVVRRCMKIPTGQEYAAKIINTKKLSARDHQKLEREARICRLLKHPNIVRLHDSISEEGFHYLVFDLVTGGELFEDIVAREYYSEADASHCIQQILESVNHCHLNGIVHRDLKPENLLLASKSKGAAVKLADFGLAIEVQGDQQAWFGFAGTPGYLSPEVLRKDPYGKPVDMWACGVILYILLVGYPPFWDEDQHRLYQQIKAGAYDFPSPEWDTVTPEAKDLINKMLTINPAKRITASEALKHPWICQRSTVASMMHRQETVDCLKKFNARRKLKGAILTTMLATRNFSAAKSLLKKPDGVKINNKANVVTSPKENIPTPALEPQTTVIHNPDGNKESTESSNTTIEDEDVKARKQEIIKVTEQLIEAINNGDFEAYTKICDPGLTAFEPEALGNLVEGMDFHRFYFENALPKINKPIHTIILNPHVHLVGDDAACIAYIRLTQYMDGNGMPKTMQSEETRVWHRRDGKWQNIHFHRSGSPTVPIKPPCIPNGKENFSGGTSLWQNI
Chain of CaV β1b subunit (Rattus norvegicus) (P54283 whole entry): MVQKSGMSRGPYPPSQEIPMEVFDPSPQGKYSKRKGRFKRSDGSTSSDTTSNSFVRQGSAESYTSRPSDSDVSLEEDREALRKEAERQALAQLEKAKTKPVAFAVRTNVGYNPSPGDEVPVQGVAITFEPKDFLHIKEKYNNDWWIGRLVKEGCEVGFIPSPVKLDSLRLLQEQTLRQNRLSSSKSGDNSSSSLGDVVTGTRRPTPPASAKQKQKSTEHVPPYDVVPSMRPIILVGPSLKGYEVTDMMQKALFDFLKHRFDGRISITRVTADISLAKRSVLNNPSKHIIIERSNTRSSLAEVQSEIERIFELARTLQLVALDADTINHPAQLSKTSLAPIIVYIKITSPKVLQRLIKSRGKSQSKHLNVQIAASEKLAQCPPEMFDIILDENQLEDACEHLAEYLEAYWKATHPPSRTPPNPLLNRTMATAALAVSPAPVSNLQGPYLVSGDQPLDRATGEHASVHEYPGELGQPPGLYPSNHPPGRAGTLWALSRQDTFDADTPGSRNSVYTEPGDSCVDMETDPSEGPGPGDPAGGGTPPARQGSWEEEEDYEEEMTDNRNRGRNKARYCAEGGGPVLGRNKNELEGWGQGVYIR

Consider CaMKIIδ (from UniProt P15791), for which the Kd in data set [1] and in data set [2] was 100 nM throughout.
